This is an account of results in patent US20260194525A1.

In experiment [1] the target is CEACAM1 in a cancer specimen having a high value of CEACAM1 (human) (UniProt P13688). Nature of the experiment: CLEIA sandwich without denaturation: 283324 on magnetic particles, biotin-labeled BAF2244 as detector; competitor AF2244 30 ug/mL added to a cancer specimen (FIG. 12).
The target in experiment [2] is commercially available recombinant antigen CEACAM1 (R&D Systems) (UniProt P13688). Description: ELISA on CEACAM1 coated in PBS; antibody 0.1 ug/mL with against without 10 ug/mL competitor polyclonal AF2244.

Consider “anti-CEACAM1 antibody 283324 (R&D Systems)”, for which the quantitative value with the polyclonal antibody added (+) against not added (-) in experiment [1] came to 3%. In experiment [2], the binding rate by addition of anti-CEACAM1 polyclonal antibody turned out to be 41%.

With “biotin-labeled anti-CEACAM1 antibody BAF2244 (R&D Systems)”, the binding rate by addition of anti-CEACAM1 polyclonal antibody in experiment [2] is 44.8%.
